Consider eight molecules from patent US20240109974A1 (SHANDONG SIMCERE BIOPHARMACEUTICAL, published 2024).

Test [1] concerns the target T1, human TNFR2 on the surface of CHO-TNFR2 cells (human, UniProt P20333 23-461).
T1 construct: whole, on cells
T1 sequence (looked up): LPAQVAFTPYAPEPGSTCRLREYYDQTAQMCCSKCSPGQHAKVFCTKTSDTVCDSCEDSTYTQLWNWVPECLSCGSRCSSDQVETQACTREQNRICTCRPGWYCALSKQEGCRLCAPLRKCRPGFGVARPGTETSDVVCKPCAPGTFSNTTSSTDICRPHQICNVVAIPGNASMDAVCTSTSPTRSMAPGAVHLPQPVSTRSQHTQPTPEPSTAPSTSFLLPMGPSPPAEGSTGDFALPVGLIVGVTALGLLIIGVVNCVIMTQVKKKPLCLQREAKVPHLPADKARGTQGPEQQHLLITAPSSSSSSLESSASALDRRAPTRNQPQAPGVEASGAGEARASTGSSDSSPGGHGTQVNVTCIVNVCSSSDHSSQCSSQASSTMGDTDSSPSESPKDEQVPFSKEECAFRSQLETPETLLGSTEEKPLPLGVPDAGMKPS
The experiment in a line: flow cytometry on CHO-TNFR2 cells; area under the MFI fold curve. The protocol: The transfected full-length plasmid of human TNFR2 was purchased from Sino Biological (Cat #HG10417-UT, NCBI Ref Seq: NM_001066.2). The experiment was conducted at a cell density within 80%. The cell medium was discarded; the cells were rinsed with PBS, and digested with 1 ml trypsin for 2 minutes; the digestion was stopped with a Ham's F12 complete medium containing 10% FBS, and then a cell suspension was made. The cell suspension was counted, and then an appropriate amount of cell suspension was centrifuged at 350×g; the supernatant was discarded; a corresponding volume of blocking solution (10% FBS+PBS) at a density of 1×10⁷ cells/ml was added to resuspend the cells, and the mixture was incubated at 4° C. for 30 minutes. After the incubation, the mixture was centrifuged at 350×g to remove the supernatant, and the cells were resuspended in a staining buffer (2% FBS+PBS) to a density of 2×10⁶ cells/ml, and spread onto a 96-well plate, with 50 μl of cell suspension added to each well for later use. The antibody was diluted with PBS for 10-fold gradient dilution from the highest concentration of 20 μg/m (twice the concentration); the diluted antibody was added to the well containing 50 μl of cell suspension, and placed on a microplate shaker for shaking at 500 rpm for 1 minute, so that the antibody was fully mixed with the cells; the mixture was incubated at 4° C. for 1 h. After the incubation, the cells were washed twice with the staining buffer, with 100 μl per well, and centrifuged at 350-g for 5 minutes, and the supernatant was discarded. The PE goat anti-Human IgG Fc antibody (ebioscience, Cat #12-4998-82) was diluted 250-fold with the staining buffer, with a volume of 100 μl per well added to the washed cell wells; the mixture was mixed evenly, and stained at 4° C. for 30 minutes. After the staining, similarly, the cells were washed twice with the staining buffer; finally, the cells were resuspended in 200 μl of staining buffer; signals were detected by a flow cytometer (Thermo Attune NxT). The stronger the signal, the stronger the binding ability of an antibody to TNFR2. The binding curve of an antibody was drawn with antibody concentration as the abscissa and corresponding mean fluorescence intensity (MFI) fold as the ordinate, and fitted with four parameters (GraphPad Prism9) to calculate the EC50 value.
On the technique in general: Flow cytometry measures light scatter and fluorescence of single cells or particles in a stream.

For test [2], the target named is T2, human TNFR2 (Novoprotein, Cat #C830) (human, UniProt P20333 23-257, limits assumed).
T2 construct: construct not described; also called human TNFR2 protein
T2 sequence (looked up): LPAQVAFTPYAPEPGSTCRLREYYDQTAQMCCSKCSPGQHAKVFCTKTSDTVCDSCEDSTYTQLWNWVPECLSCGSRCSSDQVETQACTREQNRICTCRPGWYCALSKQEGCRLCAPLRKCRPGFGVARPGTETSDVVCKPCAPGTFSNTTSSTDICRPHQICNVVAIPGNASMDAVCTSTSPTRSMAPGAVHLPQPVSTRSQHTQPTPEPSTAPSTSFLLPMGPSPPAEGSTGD
Put plainly: competition ELISA, competitor human TNFα-Biotin; area under the OD curve. The protocol:
(§1) 1 μg/ml human TNFR2 (Novoprotein, Cat #C830) was pre-coated with 100 μl/well […] in an ELISA plate. All the test TNFR2 antibodies were subjected to 2.5-fold gradient dilution from the highest concentration of 30 μg/ml; the diluted antibodies were mixed with 15 ng/ml human TNFα-Biotin (Acro Biosystem, Cat #TNA-H82E3) in equal volume, respectively; the resulting mixture was added to the ELISA plate at 100 μl/well, and incubated with shaking at room temperature for 2.0 hours. The plate was washed, and then a Streptavidin-HRP working solution (diluted at 1:10000) was added at 100 μl/well, and the mixture was incubated with shaking at room temperature for 40 minutes. The plate was washed again, and then the substrate TMB of HRP was added to develop colour. A stop solution was added to stop the reaction, and then a microplate reader (MD 13) was used to read the absorbance value. The inhibitory curve of an antibody was drawn with antibody concentration as the abscissa and corresponding OD value as the ordinate, and fitted with four parameters (GraphPad Prism9) to calculate the IC50 value. The smaller the IC50 value, the stronger the ability of an antibody to inhibit the binding of human TNFα to human TNFR2. The blocking effect of a humanized antibody was normalized to its corresponding human-murine chimeric antibody WT. The higher the percentage value, the better the inhibitory effect of the humanized antibody.

For test [3], the target named is T2, human TNFR2 (Novoprotein, Cat #C830). Put plainly: competition ELISA, human TNFR2 coated, competitor human TNFα-Biotin. The protocol:
as §1
For orientation: An ELISA detects its analyte on a solid surface through an enzyme-linked reagent.

B1: 224-Hu1 (antibody, V domains shown)
VH: QVQLVQSGAEVKKPGASVKVSCKASGFNNKDIYMHWVRQAPGQGLEWIGRIDPATGNTKHDPKFQDRVTMTSDTSTNTVYMELSSLRSEDTAVYYCARSPYGDFGAMDYWGQGTLVTVSS
VL: DIQMTQSPSSLSASVGDRVTITCTASSSVSSNYLHWYQQKPGKAPKLWIYSTSNLPSGVPSRFSGSGSGTDFTLTISSLQPEDFATYYCHQYHRSPWTFGQGTKVEIK
notes: Humanized form of #224; also called VH8 + VL6
For orientation: IC50 means the concentration that gives 50% inhibition. A high value points to weaker potency. Regarding B1, the AUC in test [1] is 642; in test [2], 7.12. In test [3], this molecule registered an IC50 of 0.441 µg/mL.

B2: 224-Hu7 (antibody, V domains shown)
VH: QVQLVQSGSELKKPGASVKVSCKASGFNNKDIYMHWVRQAPGQGLEWMGRIDPATGNTKHDPKFQDKAVLSSDTSVSTAYLQISSLKAEDTAVYYCARSPYGDFGAMDYWGQGTLVTVSS
VL: DIQMTQSPSSLSASVGDRVTITCTASSSVSSNYLHWYQQKPGKAPKLLIYSTSNLPSGVPSRFSGSGSGTDFTLTISSLQPEDFATYYCHQYHRSPWTFGQGTKVEIK
notes: Humanized form of #224; also called VH9 + VL10
Turning to B2, the AUC in test [1] is 608; in test [2] it was 7.44. In addition, the IC50 in test [3] turned out to be 0.561 µg/mL.

B3: 224-Hu4 (antibody, V domains shown)
VH: QVQLVQSGSELKKPGASVKVSCKASGFNNKDIYMHWVRQAPGQGLEWMGRIDPATGNTKHDPKFQDKAVLSSDTSVSTAYLQISSLKAEDTAVYYCARSPYGDFGAMDYWGQGTLVTVSS
VL: DIQMTQSPSSLSASVGDRVTITCTASSSVSSNYLHWYQQKPGKAPKLWIYSTSNLPSGVPSRFSGSGSGTDFTLTISSLQPEDFATYYCHQYHRSPWTFGQGTKVEIK
notes: Humanized form of #224; also called VH9 + VL6
On to B3, for which the figures for the AUC in test [1] and in test [2] were 621 and 6.25, respectively. In test [3], this molecule displayed an IC50 of 0.458 µg/mL.

B4: 224-Hu2 (antibody, V domains shown)
VH: QVQLVQSGSELKKPGASVKVSCKASGFNNKDIYMHWVRQAPGQGLEWMGRIDPATGNTKHDPKFQDKAVLSSDTSVSTAYLQISSLKAEDTAVYYCARSPYGDFGAMDYWGQGTLVTVSS
VL: DIQMTQSPSSLSASVGDRVTITCTASSSVSSNYLHWYQQKPGSSPKLWIYSTSNLPSGVPSRFSGSGSGTDFTLTISSLQPEDFATYYCHQYHRSPWTFGQGTKVEIK
notes: Humanized form of #224; also called VH9 + VL7
Regarding B4, the AUC came out at 672 in test [1] and 7.18 in test [2]. This molecule came in with an IC50 in test [3] of 0.44 µg/mL.

B5: 224-Hu5 (antibody, V domains shown)
VH: QVQLVQSGSELKKPGASVKVSCKASGFNNKDIYMHWVRQAPGQGLEWMGRIDPATGNTKHDPKFQDKAVLSSDTSVSTAYLQISSLKAEDTAVYYCARSPYGDFGAMDYWGQGTLVTVSS
VL: DIQMTQSPSSLSASVGDRVTITCTASSSVSSNYLHWYQQKPGKAPKLLIYSTSNLPSGVPSRFSGSGSGTDYSLTISSLQPEDFATYYCHQYHRSPWTFGQGTKVEIK
notes: Humanized form of #224; also called VH9 + VL9
For the molecule B5, the AUC in test [1] stood at 593; in test [2], 6.87. For the same molecule, in test [3], the IC50 was 0.528 µg/mL.

B6: 224-Hu6 (antibody, V domains shown)
VH: QVQLVQSGAEVKKPGASVKVSCKASGFNNKDIYMHWVRQAPGQGLEWIGRIDPATGNTKHDPKFQDRVTMTSDTSTNTVYMELSSLRSEDTAVYYCARSPYGDFGAMDYWGQGTLVTVSS
VL: DIQMTQSPSSLSASVGDRVTITCTASSSVSSNYLHWYQQKPGSSPKLWIYSTSNLPSGVPSRFSGSGSGTDFTLTISSLQPEDFATYYCHQYHRSPWTFGQGTKVEIK
notes: Humanized form of #224; also called VH8 + VL7
B6: the AUC in test [1] was 603; in test [2], 6.46. The same molecule yielded a 50% inhibitory concentration (IC50) in test [3] of 0.439 µg/mL.

B7: 224-Hu3 (antibody, V domains shown)
VH: QVQLVQSGSELKKPGASVKVSCKASGFNNKDIYMHWVRQAPGQGLEWMGRIDPATGNTKHDPKFQDKAVLSSDTSVSTAYLQISSLKAEDTAVYYCARSPYGDFGAMDYWGQGTLVTVSS
VL: DIQMTQSPSSLSASVGDRVTITCTASSSVSSNYLHWYQQKPGKAPKLLIYSTSNLPSGVPSRFSGSGSGTDFTLTISSLQAEDAATYYCHQYHRSPWTFGQGTKVEIK
notes: Humanized form of #224; also called VH9 + VL8
In the case of B7, the results for the AUC in test [1] and in test [2] were 675 and 6.34, respectively. In addition, in test [3], the IC50 is 0.441 µg/mL.

B8: 219-Hu5 (antibody, V domains shown)
VH: QVQLVQSGAEVKKPGSSVKVSCKASGYSFTNYWMNWVRQAPGQGLEWMGMIHPSDTETRLNQNFKDRVTITVDKSTSTAYMELSSLRSEDTAVYYCARGEGLGAARSVSMDYWGQGTLVTVSS
VL: DIQMTQSPSSLSASVGDRVTITCRASQDISNYLNWYQQKPDGTVKLLIYYTAILHSGVPSRFSGSGSGTDYSLTISSLQPEDFATYFCQQGNTLPWTFGQGTKVEIK
notes: also called VH7 + VL5
B8: the figures for the AUC in test [1] and in test [2] were 481 and 7.96, respectively. This molecule displayed an IC50 in test [3] of 0.578 µg/mL.
